Results: article PMC6922461

Biological target: trivalent Strep-Tactin-SpyCatcher

B1: Siglec-14 with N-terminal Strep-tag II, on THP-1 cells (receptor)
chain: SAWSHPQFEKEKPVYELQVQKSVTVQEGLCVLVPCSFSYPWRSWYSSPPLYVYWFRDGEIPYYAEVVATNNPDRRVKPETQGRFRLLGDVQKKNCSLSIGDARMEDTGSYFFRVERGRDVKYSYQQNKLNLEVTALIEKPDIHFLEPLESGRPTRLSCSLPGSCEAGPPLTFSWTGNALSPLDPETTRSSELTLTPRPEDHGTNLTCQVKRQGAQVTTERTVQLNVSYAPQNLAISIFFRNGTGTALRILSNGMSVPIQEGQSLFLACTVDSNPPASLSWFREGKALNPSQTSMSGTLELPNIGAREGGEFTCRVQHPLGSQHLSFILSVQRSSSSCICVTEKQQGSWPLVLTLIRGALMGAGFLLTYGLTWIYYTRCGGPQQSRAERPG
IL-8 secretion of THP-1 Siglec-14–Strep-tag II DAP12 cells against Strep-tag II–binding sites of trivalent generic ligand per CHO cell; mean EC50 (Strep-tag II–binding sites per cell): 200000
